In the test the target is biotinylated H5 (A/Vietnam/1203/2004) HA polypeptide (influenza virus A/Vietnam/1203/2004, UniProt Q8QPL1 17-531).

B1: exemplary antibody (VH-1 combined with VL-1; Table 4) (antibody, V domains shown)
VH: EVQLLESGGGLVKPGQSLKLSCAASGFTFTSYGMHWVRQPPGKGLEWVAVISYDGSYKYYADSVQGRFTISRDNSKNTLYLQMNSLRAEDTAVYYCAKDSELRSLLYFEWLSQGYFNPWGAGTTLTVSS
VL: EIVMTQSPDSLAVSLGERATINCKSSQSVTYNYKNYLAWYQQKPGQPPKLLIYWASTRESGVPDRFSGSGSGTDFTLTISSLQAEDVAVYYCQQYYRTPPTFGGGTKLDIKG
notes: also called exemplary influenza antibody
On to B1, for which binding was put at a Kd of 0.03 nM; the dissociation rate constant (koff) (in general, the rate constant with which the complex falls apart) worked out at 7.38e-06 s⁻¹; the kon – broadly, a measure of how fast the partners come together – came to 247000 M⁻¹ s⁻¹.

The values are drawn from patent publication US20130302348A1 (MIT, published 2013).
